Measurements: article PMC2330239 (Nucleic Acids Research, 2008)

T1: NCoA-1 PAS-B domain fragment 257–385 (human, UniProt Q15788 257-385)
T1 sequence: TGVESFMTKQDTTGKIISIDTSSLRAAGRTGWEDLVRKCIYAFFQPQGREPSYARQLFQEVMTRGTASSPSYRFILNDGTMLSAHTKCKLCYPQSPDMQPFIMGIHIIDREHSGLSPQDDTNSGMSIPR

T2: GST fusion protein of the NCoA-1 PAS-B domain, hNCoA-1 (260–370) (human, UniProt Q15788 260-370)
T2 sequence: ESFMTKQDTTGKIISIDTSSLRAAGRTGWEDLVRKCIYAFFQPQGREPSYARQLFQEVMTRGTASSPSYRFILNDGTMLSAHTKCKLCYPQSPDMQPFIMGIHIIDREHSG


Target: T1, NCoA-1 PAS-B domain fragment 257–385
Experiment: NMR titration

Binding result, binds:
LLPPTEQDLTKLLLEGQGESG [human STAT6 motif peptide, STAT6 (794–814)]
EDQCISSQLDELLCPPTTVEG [peptide representing LXXLL motif 4 of human NCoA-1]
EGRNDEKALLEQLVSFLSGKD [peptide representing LXXLL motif 5 of human NCoA-1]

Target: T2, GST fusion protein of the NCoA-1 PAS-B …
Experiment: pull-down

Binding result, binds:
LLPPTEQDLTKLLLEGQGESG [human STAT6 motif peptide, STAT6 (794–814)]
EDQCISSQLDELLCPPTTVEG [peptide representing LXXLL motif 4 of human NCoA-1]
EGRNDEKALLEQLVSFLSGKD [peptide representing LXXLL motif 5 of human NCoA-1]
